Measurements reported in paper PMC6875872 (The Journal of Physical Chemistry. B, 2019).

Target: the molecule itself
Assay: SEC + other: DLS + other: TEM

B1: cowpea chlorotic mottle virus (CCMV) capsid protein (natural protein, UniProt P03601 1-190, looked up)
chain: MSTVGTGKLTRAQRRAAARKNKRNTRVVQPVIVEPIASGQGKAIKAWTGYSVSKWTASCAAAEAKVTSAITISLPNELSSERNKQLKVGRVLLWLGLLPSVSGTVKSCVTETQTTAAASFQVALAVADNSKDVVAAMYPEAFKGITLEQLTADLTIYLYSSAALTEGDVIVHLEVEHVRPTFDDSFTPVY
stoichiometry N: 60
